According to PMC10244175, “Seeding the aggregation of TDP-43 requires post-fibrillization proteolytic cleavage” (Nature Neuroscience, 2023):

Target: the molecule itself
Test: cryo-EM structure; fibrils of recombinant CP (279–360); helical reconstruction in RELION; two populations (one protofilament 4.1 Å, two protofilaments 3.7 Å); model built for G281-G351

B1: TDP-43 (279–360) core peptide (domain or fragment, UniProt Q13148 279-360, looked up)
chain: NPGGFGNQGGFGNSRGGGAGLGNNQGSNMGGGMNFGAFSINPAMMAAAQAALQSSWGMMGMLASQQNQSGPSGNNQNQGNMQ
notes: TDP-43 residues 279-360 (82 amino acids), part of the C-terminal domain; printed theoretical mass 8041.7 Da; the atomic model PDB 7Q3U covers G281-G351; The fusion is written as His6-Sumo-TDP-43 (279–360) CP; the tag is removed by Ulp-1; also called CP; CP (279–360); source: E. coli ER2566, purified (Ni-NTA, Ulp-1 cleavage, reverse-phase HPLC C18), lyophilized; fibrils formed at 50 µM in …
binding result: binds
